Tested on: MS2 coat protein
Assay: apparent KD of MS2 coat protein; designed switch direction (-1 OFF switch, 1 ON switch): -1; higher = weaker reporter binding
Summary of the method: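 SNAP-549-labelled MS2 coat protein was titrated, doubling from 0.7 or 1.5 nM to 3 µM, over designed RNA switches transcribed on Illumina chips by stalled E. coli RNA polymerase. Runs were done without input, with 200 uM small-molecule ligand, or with an oligonucleotide input. Apparent KD is the per-design median over clusters of curve-fitted normalised fluorescence.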

[1] = input ligand: microRNA oligo, concentration not stated
[2] = Eterna round: R95, input ligand: microRNA oligo, concentration not stated
[3] = Eterna round: R95, input ligand: FMN 200 uM
[4] = Eterna round: R95, input ligand: none

Sequence | apparent KD of MS2 coat protein (input ligand: FMN 200 uM) | apparent KD of MS2 coat protein (input ligand: none) | apparent KD of MS2 coat protein [2] | other results
UUAGGUAAAGGAUAUGUAUGGGCGACCCAUAUGACCGAGUGACAUGAGGAUCACCCAUGUAGAAGGUUGCUGAU [Eternabot (L1) Solution 60] (Eterna round: R97, puzzle: Exclusion 2) | 125 nM | 95.7 nM |  | 
AAUUAUUAUUGAGGAUAUCGUAUUGAAACAAUACGAGAAGGCGGUAUAAACAUGAGGAUCACCCAUGUGAGCCUGAUGCUUAUG [Ex NG1 #99] (Eterna round: R96, puzzle: Exclusion NG 1) |  |  |  | apparent KD of MS2 coat protein [1]: 27.5 nM
UGAUGACAUGAGGAUCACCCAUGUCAGGAUAUUGAUCGUGAUCGGAAAUGAUCGUGAUCGAGAAGGGACUGUCG [-24.4, -21.4 kcal, A 28%, 2] (Eterna round: R97, puzzle: Exclusion 1) | 31.8 nM | 27.6 nM |  | 
AAGAAAGGUGACAUGGGUGACAUGAGGAUCACCCAUGUUACAAGCUUGUUGCUCGUCUUAUAAUUAACCCAUGUCAU [LRO Sensor-off var1-19 mod of Stov1-13-A1 by Brourd] (Eterna round: R97, puzzle: Sensor, turn-off variant 1) | 55.3 nM | 64.6 nM |  | 
CUGAGCUGAGGAUAUACAUGAGGAUCACCCAUGUGUUGGAGCUUGCGUACAGGCAGAUGUAGAAGGCAGUUCGG [JL-ex3-3.32 Brourd mod] (puzzle: Exclusion 3) |  |  | 19.5 nM | 
GGUCCACAUGAGGAUCACCCAUGUUAGGAUAUCUCGCCCGAGUCCAUAUGGGCCGGGCAGAGAAGGAAUGUGAA [Vevequbi] (puzzle: Exclusion 1) |  |  | 17.4 nM | 
AAUAAACAUGAGGAUCACCCAUGUCAGGAUAUCCAUUUGUUUUUGUUGGUUUUUUUUUGGAGAAGGGACGCUUA [Lollin - Alpha 1] (puzzle: Exclusion 1) |  |  | 58.1 nM | 
AGCGAGGAGACAGGAUAUGAGAAUAGAUAGAACUCAGAAGGGUCACAUGAGGAUCACCCAUGUAAAGUCUUGAGGCUGCGUGGU [Prohibition 8 - Jieux - Exclusion NG 1] (Eterna round: R96, puzzle: Exclusion NG 1) | 239 nM | 88.2 nM |  | apparent KD of MS2 coat protein [1]: 84.3 nM
GAUGUGGGUUUCCGGAGUAACAUGAGGAUCACCCAUGUAGAAGUUGGAGGGAUCAAGCUUUUUGGUCGUCACACGUG [JR_SV3TOV1_Sub053] (puzzle: Sensor v3, turn-off variant 1) |  |  | 227 nM | apparent KD of MS2 coat protein [3]: 213 nM; apparent KD of MS2 coat protein [4]: 306 nM
UCACGUUAGGAGGAUAUCGAUCCAUUAGCGCGACGAGAAGGCCUGACAUGAGGAUCACCCAUGUGGUCAAACAA [Bexelaar] (puzzle: Exclusion 6) |  |  | 265 nM | apparent KD of MS2 coat protein [3]: 52.1 nM; apparent KD of MS2 coat protein [4]: 158 nM
CUGGUUCUAGGAUAUGCACUCACGAUCCUCCUUCAAUCGCAACAUGAGGAUCACCCAUGUAGAAGGAGAAAGUA [Eternabot (L1) Solution 91] (Eterna round: R97, puzzle: Exclusion 2) | 18.5 nM | 18.6 nM |  | 
GCAGCAUAGUCCAAAUAGGACAUACAUGAGGAUCACCCAUGUCAGGAUAUGGUCUGGAUUACAGGCCAGAAGGGACAAAGCUGC [Eli exng3 - 001] (Eterna round: R96, puzzle: Exclusion NG 3) | 30.4 nM | 27.9 nM |  | apparent KD of MS2 coat protein [1]: 22.3 nM
UUUAAUUUAAUUAAGAUCACAUGAGGAUCACCCAUGUAAUUAUAGGAUAUCAGCUCGUGUAGAGCUGAGAAGGAUAAUUACAUA [ExNG3/5-A3] (Eterna round: R96, puzzle: Exclusion NG 3) | 81.9 nM | 72.7 nM |  | apparent KD of MS2 coat protein [1]: 58.2 nM
UGCAGACGAGGAUAUAGAUUUAGAUACAUGAGGAUCACCCAUGUAUAUAUGUAUUUAGAUUUAGAAGGCGUCUGCU [E5/15-A4] (Eterna round: R97, puzzle: Exclusion 5) | 240 nM | 283 nM |  | 
UUUUGGCAAGCGAGAUCCUACAUGAGGAUCACCCAUGUUGACCAUGGUUUCCAUGGUCUUUUUGCUCGUCUUGUGUG [jl TITIN mod 3] (Eterna round: R97, puzzle: Sensor, turn-off variant 1) | 21.1 nM | 23.1 nM |  | 
AGCUUUUUGUUCGUCUUAUACAUGAGGAUCACCCAUGUAUUGGACCGCAUCGAUAGAUGUAGACCAAGAAGCAUGGG [Omdei Mir OFFv1 C5] (Eterna round: R97, puzzle: Sensor, turn-off variant 1) | 50.6 nM | 48.2 nM |  | 
UAAUGUAUAUAGGAUAUCUAGCUGGAUACAGCUAGAGAAGGAUGUACAUGAGGAUCACCCAUGUAAAUCAGUGA [Ex6/14-B3] (Eterna round: R97, puzzle: Exclusion 6) | 206 nM | 39.3 nM |  | 
UUUUUACAUGAGGAUCACCCAUGUCAGGAUAUGCUUAUAUUUUAUUAUUUUAUUUUUUGCAGAAGGGACUAUUA [My solution] (puzzle: Exclusion 1) |  |  | 80 nM | 

Sequence | apparent KD of MS2 coat protein (input ligand: FMN 200 uM) | apparent KD of MS2 coat protein (input ligand: none) | apparent KD of MS2 coat protein [2] | other results
GAUUAUGCGAGCUUUAGGGACAUGAGGAUCACCCAUGUUCGUCUUAUUAGUCUAGGUGCACUAACAUACCUAAAUCU [JMF 35] (puzzle: Sensor v3, turn-off variant 1) |  |  | 36 nM | apparent KD of MS2 coat protein [3]: 20.7 nM; apparent KD of MS2 coat protein [4]: 21.3 nM
CUUUUGUGAGGAUAUCAUUAGUAAAAAAAUAAAAUUACUACUGAGAAGGCACAUGAGGAUCACCCAUGUUCCUC [salish99_ex4_r3_034] (puzzle: Exclusion 4) |  |  | 37.6 nM | 
GAACUCGUGAAGGAUAUCCGUACCAAAGCGGCAGGAGAAGGUCACACAUGAGGAUCACCCAUGUGGUACCUCGU [Xeinbira] (Eterna round: R96, puzzle: Exclusion 6) |  |  |  | apparent KD of MS2 coat protein [1]: 23.6 nM
AUUUAAUUUAAUAAGAUCACAUGAGGAUCACCCAUGUAUAUAUAGGAUAUCAGCUCGUGUAGAGCUGAGAAGGAUAUAUACUAU [ExNG3/7-B3] (Eterna round: R96, puzzle: Exclusion NG 3) |  |  |  | apparent KD of MS2 coat protein [1]: 266 nM
AAUAAGUGAGGAUAUCCAAUAAUAAAUAAAAUAAUAAAUAAGGAGAAGGCACAUGAGGAUCACCCAUGUAAUAA [JMF's solution 2] (puzzle: Exclusion 4) |  |  | 14.8 nM | apparent KD of MS2 coat protein [3]: 19 nM; apparent KD of MS2 coat protein [4]: 15.7 nM
GUAGAGUGAGGAUAUACAAGAUCGAUAGAUCGGCGAUCCAUACAUGAGGAUCACCCAUGUAGAAGGCACUCUAC [Mat - Exclusion 2 - Eli Mod - D7] (Eterna round: R97, puzzle: Exclusion 2) | 218 nM | 83.5 nM |  | 
CGAUAAAGCUGAGGAUAUGAGGAGAGAGAGAGAUCAGAAGGCAGACAUGAGGAUCACCCAUGUGAGUUCUCGAAAUUAAAUAUU [Prohibition 48 - Jieux - Exclusion NG 1] (Eterna round: R96, puzzle: Exclusion NG 1) | 225 nM | 57.5 nM |  | apparent KD of MS2 coat protein [1]: 47 nM
GGUCGGCGAGGAUAUACAUGAGGAUCACCCAUGUGAUAUAGUGCACGCGUACGUGUACGUAGAAGGCGCUGACG [JL-ex3-3.26 salish99 mod] (puzzle: Exclusion 3) |  |  | 11.2 nM | apparent KD of MS2 coat protein [3]: 39.6 nM; apparent KD of MS2 coat protein [4]: 15.1 nM
AAUAAGUGAGGAUAUACGUCUGGACCCGGGAGGGAAAUAAAACAUGAGGAUCACCCAUGUAGAAGGCACAAUAA [Excls2-III] (puzzle: Exclusion 2) |  |  | 13.5 nM | apparent KD of MS2 coat protein [3]: 17.5 nM; apparent KD of MS2 coat protein [4]: 16.9 nM
CUAGUCCGAGGAUAUAUUAUGUGAAACAUGAGGAUCACCCAUGUAAUAUGAUGGAAAUAAAUAGAAGGCGGACUAG [Mat - Exclusion 5 - JL mod - D33] (puzzle: Exclusion 5) |  |  | 30.9 nM | apparent KD of MS2 coat protein [3]: 25.7 nM; apparent KD of MS2 coat protein [4]: 30.2 nM
AGUGUGAUAGGAUAUACAUGAGGAUCACCCAUGUGAAUGGUAAUGUGUCCAAGAUCAGGUAGAAGGGUCGGGUU [Eternabot (L1) Solution 56] (Eterna round: R97, puzzle: Exclusion 3) | 83.6 nM | 101 nM |  | 
AUAUAUAGUGUGAGGAUAUGCUGGUCCUUGGAUCAGCAGAAGGCACAUGAGGAUCACCCAUGUAGUUUAUUUUA [Mat - Exclusion 4 - JL Mod - D1] (puzzle: Brourd's mod of Exclusion 4) |  |  | 29.3 nM | 
UCCUGACAUGAGGAUCACCCAUGUGAGGAUAUGUGGUUCGGGUCAACUCCCGUUCCGUGCAGAAGGCACAGGGC [EX1 A.29] (Eterna round: R97, puzzle: Exclusion 1) | 26.4 nM | 16.2 nM |  | 
CUUCACCCACCAGAGCUCACCCACAUACCUGCUCAGGUGACAUGAGGAUCACCCAUGUUUUUUGCCCGUCUUAUCUU [Atquertebi] (puzzle: Sensor v3, turn-off variant 2) |  |  | 181 nM | apparent KD of MS2 coat protein [3]: 33.1 nM; apparent KD of MS2 coat protein [4]: 34.3 nM
CACCUGAAGACAGGAUAUCAUACAUGAGGAUCACCCAUGUAAUAAAUGAGAAUUUCGAAUGUAAUUGAGAAGGGUCAAUAAGGC [Ostricism 96 - Jieux - Exclusion NG 2] (Eterna round: R96, puzzle: Exclusion NG 2) | 58.7 nM | 29.2 nM |  | apparent KD of MS2 coat protein [1]: 31.3 nM
UCCGAAGCAGGAUAUACAUGAGGAUCACCCAUGUGCUUGCAUGGCGUGGGAAGUCAUAGUAGAAGGGCUACGCC [jl-ex3-4.71 ViennaUCT mod] (Eterna round: R97, puzzle: Exclusion 3) | 53.1 nM | 33.7 nM |  | 
CAUUAUUAUCGAGGAUAUCCUAUUGAAAUUCUGGGAGAAGGCGGACUCAACAUGAGGAUCACCCAUGUGAGACGGAUGCUAGGG [Ex NG1 #27] (Eterna round: R96, puzzle: Exclusion NG 1) |  |  |  | apparent KD of MS2 coat protein [1]: 15 nM

Source: the supplement of paper PMC9170038
